Measured values published in publication PMC12391199.

How the values were obtained:
[1] = biological target: portal protein gp4 of bacteriophage Epsilon15 (portal complex) (bacteriophage Epsilon15); experiment: cryo-EM structure; asymmetric single-particle reconstruction of whole ϵ15 virions (iodixanol-purified, in PBS, graphene oxide-coated grids, Titan Krios 300 kV, RELION 2.0), with focused refinement of the portal at ~7 Å
[2] = biological target: tail hub of bacteriophage Epsilon15 (bacteriophage Epsilon15); experiment: as above

Substance | stoichiometry N [1] | stoichiometry N [2]
portal protein gp4 of bacteriophage Epsilon15 (portal complex) (natural protein) | 12 | –
tail hub of bacteriophage Epsilon15 (complex) | – | 6
